In US20260242478A1 (published 2026):
Where no end group is shown, it is not given here.

Assays:
[1] = target: T1, Anti-PSMA Fab (SEQ ID NOs: 19, 20); assay: phage binding ELISA; biotinylated anti-PSMA Fab captured on neutravidin, bound phage detected with anti-M13 HRP
T1 construct: Biotinylated and captured on neutravidin coated plates in the phage ELISA; also called 006 PSMA Fab

[2] = target: T1, Anti-PSMA Fab (SEQ ID NOs: 19, 20); assay: phage binding ELISA on captured anti-PSMA Fab; PSMA antigen as competitor
[3] = target: T2, Anti-PSMA Fab (SEQ ID NOs: 19, 20); assay: phage binding ELISA; biotinylated PSMA Fab on neutravidin plate, clonal phage supernatant, anti-M13 HRP detection;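 further: wells were preincubated with blocking buffer either containing PSMA antigen or without it before crude phage supernatant was added, briefly incubated, then washed prior to detection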
T2 construct: Biotinylated PSMA Fab captured on neutravidin coated plates in the phage ELISA; also called 006 PSMA Fab

[4] = target: T2, Anti-PSMA Fab (SEQ ID NOs: 19, 20); assay: phage binding ELISA; PSMA Fab on plate pre-incubated with PSMA antigen as competitor, anti-M13 HRP detection;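 further: crude clonal phage supernatants added without washing to wells preincubated with PSMA in blocking buffer, compared with wells receiving blocking buffer only, then bound phage detected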
[5] = target: T3, Anti-PSMA Fab (SEQ ID NOs: 19, 20); assay: phage binding ELISA on PSMA Fab coated plates; competitor: PSMA antigen
T3 construct: Biotinylated Fab captured on neutravidin coated plates in the phage ELISA; also called 006 PSMA Fab

[6] = target: T3, Anti-PSMA Fab (SEQ ID NOs: 19, 20); assay: phage binding ELISA; clonal phage on biotinylated PSMA Fab captured on neutravidin plates, anti-M13 HRP detection

EFKWCIPSWMCHET [Phage-1778 (clonal phage displaying the peptide of SEQ ID NO: 2074)] was tested, and the “Anti-PSMA Fab (SEQ ID NOs: 19, 20) signal” value [1] was 2.02 and the “Anti-PSMA Fab signal in the presence of PSMA” value (shortened to “Anti-PSMA Fab signal”) [2] was 0.0857.

For ISKWCIPEWMCTSP [Phage-1787 (clonal phage displaying the peptide of SEQ ID NO: 2083)], the “Anti-PSMA Fab (SEQ ID NOs: 19, 20) signal” value [1] was 1.73 and the “Anti-PSMA Fab signal” value [2] was 0.107.

B1: Phage-1833 (peptide)
peptide: DIPWCIPPWMCAGS
modifications: cysteine pairing not given here; also: displayed on phage as pIII fusion, pIII sequence and linker not given here
notes: tested as crude clonal phage supernatant
With B1 the “Anti-PSMA Fab (SEQ ID NOs: 19, 20) signal” value [3] was 2.28 and the “Anti-PSMA Fab signal” value [4] was 0.112.

For EGIRCTPIWMCEGF [Phage-1774], the “Anti-PSMA Fab signal” value [5] was 0.0778 and the “Anti-PSMA Fab (SEQ ID NOs: 19, 20) signal” value [6] was 2.09.

VLKWCRPAWMCEVL [Phage-1766] was tested, and the “Anti-PSMA Fab signal” value [5] was 0.219 and the “Anti-PSMA Fab (SEQ ID NOs: 19, 20) signal” value [6] was 2.38.

In the case of DLRLCKPAWMCDFI [Phage-1781 (clonal phage displaying the peptide of SEQ ID NO: 2077)], the “Anti-PSMA Fab (SEQ ID NOs: 19, 20) signal” value [1] is reported as 1.95 and the “Anti-PSMA Fab signal” value [2] is reported as 0.0601.

B2: Phage-1832 (peptide)
peptide: MGKWCIPEWMCNVS
notes: as for B1
B2 was tested, and the “Anti-PSMA Fab (SEQ ID NOs: 19, 20) signal” value [3] was 2.29 and the “Anti-PSMA Fab signal” value [4] was 0.0652.

LEKLCIPAWMCEWL [Phage-1765] was tested, and the “Anti-PSMA Fab signal” value [5] was 0.184 and the “Anti-PSMA Fab (SEQ ID NOs: 19, 20) signal” value [6] was 2.4.

With IPKSCIPSWMCTGF [Phage-1775 (clonal phage displaying the peptide of SEQ ID NO: 2071)] the “Anti-PSMA Fab (SEQ ID NOs: 19, 20) signal” value [1] was 2.08 and the “Anti-PSMA Fab signal” value [2] was 0.101.

DLRLCKPAWMCYFI [Phage-1773] was tested, and the “Anti-PSMA Fab signal” value [5] was 0.0751 and the “Anti-PSMA Fab (SEQ ID NOs: 19, 20) signal” value [6] was 2.11.

DVKLCKPEWMCYGL [Phage-1786 (clonal phage displaying the peptide of SEQ ID NO: 2082)] was tested, and the “Anti-PSMA Fab (SEQ ID NOs: 19, 20) signal” value [1] was 1.75 and the “Anti-PSMA Fab signal” value [2] was 0.0637.

For VTKWCIPPWMCEVT (also called Peptide-230) [Phage-1780 (clonal phage displaying the peptide of SEQ ID NO: 2076)], the “Anti-PSMA Fab (SEQ ID NOs: 19, 20) signal” value [1] was 2 and the “Anti-PSMA Fab signal” value [2] was 0.0864.

In the case of LCQWYPKFHWMDCD (also called Peptide-210) [Phage-1760], the “Anti-PSMA Fab signal” value [5] is reported as 0.0695 and the “Anti-PSMA Fab (SEQ ID NOs: 19, 20) signal” value [6] is reported as 0.611.

In the case of FEKLCVPKWMCEGI (also called Peptide-220) [Phage-1770], the “Anti-PSMA Fab signal” value [5] is reported as 0.0601 and the “Anti-PSMA Fab (SEQ ID NOs: 19, 20) signal” value [6] is reported as 2.17.

FVPLCKPAWMCSFV [Phage-1768] was tested, and the “Anti-PSMA Fab signal” value [5] was 0.111 and the “Anti-PSMA Fab (SEQ ID NOs: 19, 20) signal” value [6] was 2.2.

For LTKLCIPDWMCSEF [Phage-1776 (clonal phage displaying the peptide of SEQ ID NO: 2072)], the “Anti-PSMA Fab (SEQ ID NOs: 19, 20) signal” value [1] was 2.07 and the “Anti-PSMA Fab signal” value [2] was 0.0876.

In the case of IDIRCTPIWMCVGF [Phage-1789 (clonal phage displaying the peptide of SEQ ID NO: 2085)], the “Anti-PSMA Fab (SEQ ID NOs: 19, 20) signal” value [1] is reported as 1.57 and the “Anti-PSMA Fab signal” value [2] is reported as 0.0801.

B3: Phage-1831 (peptide)
peptide: IIPWCKPAWMCSGM
notes: as for B1
For B3, the “Anti-PSMA Fab (SEQ ID NOs: 19, 20) signal” value [3] was 2.29 and the “Anti-PSMA Fab signal” value [4] was 0.275.

For VVKACIPTWMCQFV [Phage-1779 (clonal phage displaying the peptide of SEQ ID NO: 2075)], the “Anti-PSMA Fab (SEQ ID NOs: 19, 20) signal” value [1] was 2.02 and the “Anti-PSMA Fab signal” value [2] was 0.0901.

In the case of LEKTCIPTWMCVGF [Phage-1784 (clonal phage displaying the peptide of SEQ ID NO: 2080)], the “Anti-PSMA Fab (SEQ ID NOs: 19, 20) signal” value [1] is reported as 1.88 and the “Anti-PSMA Fab signal” value [2] is reported as 0.0732.

With HVKLCKPAWMCQGL [Phage-1769] the “Anti-PSMA Fab signal” value [5] was 0.0831 and the “Anti-PSMA Fab (SEQ ID NOs: 19, 20) signal” value [6] was 2.18.

With HCEFHDYQSCDVLY [Phage-1761] the “Anti-PSMA Fab signal” value [5] was 0.126 and the “Anti-PSMA Fab (SEQ ID NOs: 19, 20) signal” value [6] was 1.89.

With LCEWWTSHVDAWCA [Phage-1763] the “Anti-PSMA Fab signal” value [5] was 0.184 and the “Anti-PSMA Fab (SEQ ID NOs: 19, 20) signal” value [6] was 0.575.

In the case of LDNWCKPSWMCTGF [Phage-1777 (clonal phage displaying the peptide of SEQ ID NO: 2073)], the “Anti-PSMA Fab (SEQ ID NOs: 19, 20) signal” value [1] is reported as 2.05 and the “Anti-PSMA Fab signal” value [2] is reported as 0.0633.

In the case of LEKLCKPAWMCVNF [Phage-1788 (clonal phage displaying the peptide of SEQ ID NO: 2084)], the “Anti-PSMA Fab (SEQ ID NOs: 19, 20) signal” value [1] is reported as 1.66 and the “Anti-PSMA Fab signal” value [2] is reported as 0.107.

For WEKLCTPAWMCVGF [Phage-1764], the “Anti-PSMA Fab signal” value [5] was 0.105 and the “Anti-PSMA Fab (SEQ ID NOs: 19, 20) signal” value [6] was 2.44.

GEKWCIPDWMCSGF [Phage-1783 (clonal phage displaying the peptide of SEQ ID NO: 2079)] was tested, and the “Anti-PSMA Fab (SEQ ID NOs: 19, 20) signal” value [1] was 1.91 and the “Anti-PSMA Fab signal” value [2] was 0.148.

With IDKLCIPFWMCENL [Phage-1771] the “Anti-PSMA Fab signal” value [5] was 0.0699 and the “Anti-PSMA Fab (SEQ ID NOs: 19, 20) signal” value [6] was 2.16.

VGKLCVPEWMCVGL [Phage-1767] was tested, and the “Anti-PSMA Fab signal” value [5] was 0.063 and the “Anti-PSMA Fab (SEQ ID NOs: 19, 20) signal” value [6] was 2.25.

In the case of HCKFHDYHSWYVCY [Phage-1762], the “Anti-PSMA Fab signal” value [5] is reported as 0.0994 and the “Anti-PSMA Fab (SEQ ID NOs: 19, 20) signal” value [6] is reported as 2.31.

In the case of LDKWCVPKWMCSGL [Phage-1782 (clonal phage displaying the peptide of SEQ ID NO: 2078)], the “Anti-PSMA Fab (SEQ ID NOs: 19, 20) signal” value [1] is reported as 1.92 and the “Anti-PSMA Fab signal” value [2] is reported as 0.0742.

For FEKWCTPPWMCSLF [Phage-1772], the “Anti-PSMA Fab signal” value [5] was 0.203 and the “Anti-PSMA Fab (SEQ ID NOs: 19, 20) signal” value [6] was 2.11.

With VEKLCTPIWMCLGF [Phage-1785 (clonal phage displaying the peptide of SEQ ID NO: 2081)] the “Anti-PSMA Fab (SEQ ID NOs: 19, 20) signal” value [1] was 1.84 and the “Anti-PSMA Fab signal” value [2] was 0.0705.
